Measured values: patent publication US20090053227A1

Target: Kv3.2a (potassium channel Kv3.2a, KCNC2 transcript variant 1) (human) (UniProt Q96PR1)
Assay: flow cytometry on unpermeabilized Kv3.2a-CHO 1A5 cells

Sequence of UniProt Q96PR1 (Q96PR1 other isoform, or with tags, fused parts or gaps mutant): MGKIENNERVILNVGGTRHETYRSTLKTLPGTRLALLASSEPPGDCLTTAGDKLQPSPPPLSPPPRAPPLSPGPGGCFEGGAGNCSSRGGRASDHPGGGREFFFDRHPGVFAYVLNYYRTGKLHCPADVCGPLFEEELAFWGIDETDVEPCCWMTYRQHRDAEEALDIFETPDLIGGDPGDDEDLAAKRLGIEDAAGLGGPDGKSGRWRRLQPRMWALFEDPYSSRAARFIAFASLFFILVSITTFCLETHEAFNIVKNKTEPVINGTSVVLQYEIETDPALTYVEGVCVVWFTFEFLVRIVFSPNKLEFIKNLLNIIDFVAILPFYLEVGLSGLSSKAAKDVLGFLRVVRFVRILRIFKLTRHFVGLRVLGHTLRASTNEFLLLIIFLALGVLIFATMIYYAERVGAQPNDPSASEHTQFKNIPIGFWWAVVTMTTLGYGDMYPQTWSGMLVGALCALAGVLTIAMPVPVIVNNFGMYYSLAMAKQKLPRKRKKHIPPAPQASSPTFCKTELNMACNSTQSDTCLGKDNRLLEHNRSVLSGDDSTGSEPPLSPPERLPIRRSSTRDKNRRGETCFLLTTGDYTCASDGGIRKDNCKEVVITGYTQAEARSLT

percentage shift into gate: 0.01%
Substance: Neg control
